Here are results for five molecules from patent US20120034232A1 (INNATE PHARMA, published 2012).

Assay [1] addresses recombinant human His-tagged TLR3 extracellular domain recombinant protein (R&D systems, #1487-TR-050) (human) (UniProt O15455). The assay is described as follows: SPR (Biacore T100), rhTLR3 immobilised on CM5 chip, antibody in solution, bivalent affinity, pH 5.6, mean of 2 or 3 experiments.
The target is the same in assay [2]. In words: SPR (Biacore T100), rhTLR3 immobilised on CM5 chip, antibody in solution, bivalent affinity, pH 7.2, mean of 2 or 3 experiments. A general note: Surface plasmon resonance follows binding to a sensor surface in real time, without labels.
Assay [3] deals with T1, human TLR3 expressed in cells (293T cells stably transfected with pUNO-hTLR3); endogenous TLR3 of human … (human, UniProt O15455 24-904). In words: cell-based or functional assay.
In assay [4] the target is T2, recombinant human His-tagged TLR3 extracellular domain recombinant protein (R&D systems, #1487-TR-050) (human, UniProt O15455 24-704).
T2 construct: Bought protein; also called recombinant human TLR3; rhTLR3; not shown: His tag
The assay is described as follows: ELISA, His-tagged rec TLR3 (reference: His-tagged rec TLR4) on Ni-NTA plates, hybridoma supernatant.

For assay [5], the target named is T1, human TLR3 expressed in cells (293T …). The assay is described as follows: cell-based or functional assay. This is another data set of the same source.

Regarding “anti-TLR3 antibody TLR3.7 (eBiosciences)”, the Kd in assay [1] was determined as 9 nM; in assay [2] it was 45 nM.

B1: anti-TLR3 monoclonal antibody 34A3 (antibody, V domains shown)
VH: EIQLQQSGPELVKPGASVKVSCKASGYVFTTYSIYWVKQSHGKSLEWIGYIDPYNGDTSYNQKFKGKATLTVDKSSSTAYMHLNSLTSEDSTVYYCAREGNYYGYFDYWGQGTTLTVS
VL: QIVLTQSPALMSASPGEKVTMTCSASSSVSYMFWYQQKPRSSPKPWIYLTSNLASGVPARFSGSGSGTSYSLTISSMEAEDAATYYCQQWTGNPPTFGGGTKLEIK
As to B1, in assay [3], the “IC50 of inhibition of luciferase expression, polyAU 100 µg/ml” value was less than 5 µg/mL.

B2: anti-TLR3 monoclonal antibody 29H3 (antibody, V domains shown)
VH: DVQLQESGPDLVKPSQSLSLTCTVTGYSITSGYSWHWIRQFLGNKLEWMGYIHYSGITNYNPSLRSRISFTRDTSKNQFFLQLNSVTTEDTATYYCARDGYYGMDYWGQGTSVTVS
VL: DIVMTQSQKFMSTSVGDRVSITCKASQNVRTSVAWYQQKPGQSPKALIYLASNRHTGVPDRFTGSGSGTDFTLTVSNIQSEDLADYFCLQHWNYPYTFGGGTKLEIK
notes: also called 29H3.7; CNCM I-4187
Turning to B2, in assay [4], the “ratio of DO obtained in TLR3 ELISA to DO obtained in TLR4 ELISA” value (from here on “ratio of DO obtained in TLR3 ELISA”) is greater than 10.

B3: anti-TLR3 monoclonal antibody 23C8 (antibody, V domains shown)
VH: EVQLQQSGPELVKPGASVKISCKASGYSFTGYFMHWVKQSHVKSLEWIGRINPYNGATSYNQNFKDKASLTVDKSSSTSYMELHSLTSEDSAVYYCVRDDGGNYPFDYWGQGTTLTVS
VL: DIQMTQSPASLSASVGETVTITCRASENIYSYLAWYQQKQGKSPQLLVYYAKTLAEGVPSRFSGSGTGTQFSLKINSLQPEDFGSYYCQHHYGTPYTFGGGTKLEIK
B3: the “ratio of DO obtained in TLR3 ELISA” value in assay [4] is greater than 10. In assay [5], the “IC50 of inhibition of luciferase expression in 293-huTLR3 cells, polyAU 300 µg/ml” value is 1.83 µg/mL. Also, the “IC50 of inhibition of luciferase expression, polyAU 100 µg/ml” value in assay [3] was less than 5 µg/mL.

B4: anti-TLR3 monoclonal antibody 28F11 (antibody, V domains shown)
VH: EVQLQQSGPELVKPGASVKISCKASGYSFTGYYIHWVKQSHVKSLEWIGRINPYYGATSYNQNFKDKANLTVDKSSSTAYMELHSLTSDDSAVYYCARSTKLGYLDYWGQGTTLTVS
VL: DIQMTQSPASLSASVGETVTITCRASENIYSNLAWYQQKQGKSPQLLIYNAKTLAEGVPSRFSGSGSGTQYFLKINSLQPEDFGSYYCQHHYGTPFTFGGGTKLEIK
With B4, in assay [4], the “ratio of DO obtained in TLR3 ELISA” value was greater than 10. For the same molecule, the “IC50 of inhibition of luciferase expression in 293-huTLR3 cells, polyAU 300 µg/ml” value in assay [5] amounted to 5.56 µg/mL.
